From publication PMC8565326, “Structural dissection of sequence recognition and catalytic mechanism of human LINE-1 endonuclease”

Assays:
[1] = biological target: T1, L1-EN D145A/Y226K (LINE-1 ORF2p endonuclease domain) (human, UniProt O00370 1-238, D145A;Y226K); assay: X-ray crystallography; no Mg2+; 0.1 M MES pH 6.0, 0.2 M NaCl, 30% Jeffamine ED-2003; 2.8 A; Co-crystallization: protein 16-24 mg/ml in 300 mM NaCl, 15 mM HEPES pH 7.5, 2% glycerol, 1 mM TCEP, DNA:protein 1.2:1; crystallization pH 6.0 (dna17) or 4.5 (dna14); temperature not stated; details: protein: recombinant; tags: N-terminal 6xHis-SUMO, cleaved with Ulp1; single-nucleotide T/A overhangs at the ends
[2] = biological target: T1, L1-EN D145A/Y226K (LINE-1 ORF2p …); assay: X-ray crystallography; no Mg2+; 0.1 M sodium acetate pH 4.5, 0.2 M ammonium acetate, 15% PEG 4000; 2.8 A; Co-crystallization: protein 16-24 mg/ml in 300 mM NaCl, 15 mM HEPES pH 7.5, 2% glycerol, 1 mM TCEP, DNA:protein 1.2:1; crystallization pH 6.0 (dna17) or 4.5 (dna14); temperature not stated; details: protein: recombinant; tags: N-terminal 6xHis-SUMO, cleaved with Ulp1; single-nucleotide T/A overhangs at the ends

T1 sequence (O00370 1-238 D145A/Y226K): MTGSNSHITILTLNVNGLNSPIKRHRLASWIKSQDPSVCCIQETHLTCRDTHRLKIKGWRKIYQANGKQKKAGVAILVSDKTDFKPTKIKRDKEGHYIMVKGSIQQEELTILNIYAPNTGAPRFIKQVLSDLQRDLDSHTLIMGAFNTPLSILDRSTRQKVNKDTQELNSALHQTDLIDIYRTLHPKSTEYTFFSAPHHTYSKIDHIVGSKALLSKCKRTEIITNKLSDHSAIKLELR

Row | Binder | binding result [1] | binding result [2]
1 | dna17 (dsDNA) DNA 1: GCTCCTTTTTAAGGGCTA DNA 2: AGCCCTTAAAAAGGAGCT | binds | 
2 | dna14 (dsDNA) DNA 1: GCTCCTTTTTAAGGA DNA 2: CCTTAAAAAGGAGCT |  | binds
